Source: article PMC9934072, “The mechanism of thia-Michael addition catalyzed by LanC enzymes” (Proceedings of the National Academy of Sciences of the …, 2023)
Ends that are not written are not given here.

Tests used:
[1] = target: fluorescein-labeled Dha-Erk peptide; experiment: fluorescence polarisation; LanCL1 or variant titrated (highest 400 μM, 300 μM for some variants) against 20 nM fluorescein-peptide; 0.5 mM TCEP, 0.1 mM ZnCl2, 150 mM NaCl, 100 mM Tris pH 7.5, no GSH; 15 min incubation; triplicates
[2] = target: Fluorescein-labeled Erk peptide in which the Dha was substituted by L-Ala; experiment: fluorescence polarisation; fluorescein-labeled peptide with LanCL1 or its variants; in the absence of GSH to avoid catalytic turnover
[3] = target: T1, LanCL1 Wild Type (human LanC-like protein 1) (human, UniProt O43813 1-399); experiment: fluorescence polarisation; LanCL1 or variant titrated (highest 400 μM, 300 μM for some variants) against 20 nM fluorescein-peptide; 0.5 mM TCEP, 0.1 mM ZnCl2, 150 mM NaCl, 100 mM Tris pH 7.5, no GSH; 15 min incubation; triplicates; conditions: both partners purified
T1 construct: LanC-like protein 1 (LanCL1), human; also called LanCL1 WT; WT-LanCL1; source: E. coli Rosetta 2 (DE3), purified (HisTrap Ni-NTA, PD-10 desalting)
T1 sequence (O43813 whole entry): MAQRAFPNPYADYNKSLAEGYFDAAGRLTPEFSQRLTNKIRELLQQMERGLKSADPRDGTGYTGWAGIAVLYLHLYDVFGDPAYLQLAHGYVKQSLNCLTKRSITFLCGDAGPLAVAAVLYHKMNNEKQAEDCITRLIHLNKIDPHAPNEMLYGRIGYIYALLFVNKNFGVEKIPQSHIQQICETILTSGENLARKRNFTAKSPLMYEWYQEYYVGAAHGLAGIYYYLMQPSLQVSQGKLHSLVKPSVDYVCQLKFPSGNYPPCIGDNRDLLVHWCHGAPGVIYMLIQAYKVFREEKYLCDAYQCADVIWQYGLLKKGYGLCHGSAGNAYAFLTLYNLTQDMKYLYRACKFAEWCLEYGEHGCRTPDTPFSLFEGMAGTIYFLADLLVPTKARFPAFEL

[4] = target: T1, LanCL1 Wild Type (human LanC-like …); experiment: as above; conditions: both partners purified; remark: listed apart in the source

Chain of human LanCL1, wild type (His6-LanCL1) (O43813 whole entry): as above

| Molecule | Kd [1] [µM] | other results |
| --- | --- | --- |
| LanCL1 C264A/H277A (from UniProt O43813 1-399) (enzyme) | > 112 |  |
| LanCL1 C264A/H277K (from UniProt O43813 1-399) (enzyme) | > 470 |  |
| LanCL1 C264A/H277N (from UniProt O43813 1-399) (enzyme) | > 315 |  |
| human LanCL1, wild type (His6-LanCL1) (from UniProt O43813 1-399) (enzyme) |  | fold weaker binding than Flu-Dha-Erk [2]: 4 fold |
| DHTGFLAEYVATR (also: fluorescein label, end not given here, Numbers count on: the synthetic 13-mer; Its preparation is not described; also called Flu-Ala-Erk; fluorescein-Ala-Erk) [fluorescein-labeled Ala-Erk peptide] |  | Kd [3]: 79.6 ± 7.6 µM; Kd [4]: > 133 µM |
